According to patent publication US20050147614A1 (CANCER RESEARCH TECHNOLOGY, published 2005):
Where “and” joins values, the source holds several entries; their conditions need not be identical. Identical values can stand only once. Values belong to the molecule of their own block, whether it stands above or below them.

Columns and labels:
[1] = molecular target: carcinoembryonic antigen (CEA) (UniProt P06731); test: off-rate analysis on the yeast surface at 37 C
[2] = molecular target: T1, carcinoembryonic antigen (CEA) (UniProt P06731 35-685, limits assumed, biotinylated (labelled form); unlabelled CEA (Calbiochem) used as competitor in the off-rate assays); test: yeast surface display, equilibrium titration with biotinylated CEA, flow cytometry, 37 C
T1 construct: also called biotinylated-CEA; bio-CEA
T1 sequence (looked up): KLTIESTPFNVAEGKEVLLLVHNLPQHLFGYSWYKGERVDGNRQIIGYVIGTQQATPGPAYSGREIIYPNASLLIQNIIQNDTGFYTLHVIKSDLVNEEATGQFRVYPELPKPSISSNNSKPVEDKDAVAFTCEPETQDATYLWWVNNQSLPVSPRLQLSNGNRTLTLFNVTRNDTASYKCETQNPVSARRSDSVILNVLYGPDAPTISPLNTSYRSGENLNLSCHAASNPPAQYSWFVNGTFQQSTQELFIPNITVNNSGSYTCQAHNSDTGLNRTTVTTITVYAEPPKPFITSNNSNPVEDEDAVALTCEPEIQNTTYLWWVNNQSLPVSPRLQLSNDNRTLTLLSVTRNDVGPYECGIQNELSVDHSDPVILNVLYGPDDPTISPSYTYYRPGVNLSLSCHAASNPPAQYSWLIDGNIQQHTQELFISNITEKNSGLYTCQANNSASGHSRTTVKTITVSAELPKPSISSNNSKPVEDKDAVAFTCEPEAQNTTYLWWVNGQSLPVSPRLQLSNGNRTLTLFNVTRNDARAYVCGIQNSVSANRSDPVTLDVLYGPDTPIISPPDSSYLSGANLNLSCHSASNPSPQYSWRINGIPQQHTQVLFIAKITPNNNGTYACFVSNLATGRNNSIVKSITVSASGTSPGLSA
Description: Equilibrium binding constants KD for CEA at 37° C. A) Plot of CEA binding (measured fluorescence) versus CEA concentration. B) CEA binding (normalized for different display levels) versus CEA concentration. […] C) Soluble production of MFE-23 (1) and hMFE (2) at 37° C. for 48 hours. Additional lanes are the scFvs produced at 37° C. and 20° C. for varying amounts of time.

[3] = molecular target: T1, carcinoembryonic antigen (CEA); test: yeast surface display, dissociation of biotinylated CEA in excess unlabelled CEA, flow cytometry
Description: Binding analysis of clones isolated from aggressive hMFE Library sort. A) Equilibrium Titration (Example 3). hMFE (kD±8.5±0.5 nM) (●), m9B (kD=0.8±0.1 nM) (▪), m10B (kD=0.08±0.01 nM) (♦)B). Off-rate. Dissociation rates were measured by first labeling yeast displaying the scFv of interest with biotinylated CEA. Then, the labeled cells were washed and incubated with an excess of nonbiotinylated CEA. Dissociation of labeled CEA from the cells was followed at the single cell level by flow cytometry and streptavidin-PE labeling, as described in Example 3. hMFE (koff=1.2±0.1×10⁻³ s⁻¹) (●), m9B (koff=7.5±0.4×10⁻⁵ s⁻¹) (▪), m10B (koff=6.0±0.4×10⁻⁶ s⁻¹) (♦).

[4] = molecular target: T1, carcinoembryonic antigen (CEA); test: off-rate analysis on the yeast surface at 37 C
[5] = molecular target: T1, carcinoembryonic antigen (CEA); test: yeast surface display, off-rate analysis
[6] = molecular target: T1, carcinoembryonic antigen (CEA); test: yeast surface display, dissociation of biotinylated CEA in 100-fold excess unlabelled CEA at 37 C, flow cytometry
[7] = molecular target: T1, carcinoembryonic antigen (CEA); test: yeast surface display, off-rate analysis with biotinylated CEA and excess unlabelled CEA, flow cytometry
[8] = molecular target: T1, carcinoembryonic antigen (CEA); test: yeast surface display, equilibrium titration with biotinylated CEA
[9] = molecular target: T1, carcinoembryonic antigen (CEA); test: yeast surface display, equilibrium titration with biotinylated CEA, flow cytometry

- koff [1]: 1.2e-06 s⁻¹
Molecule: sm3E+T98A (scFv)

- koff [7]: 0.00011 s⁻¹
B3: sm9B (scFv)
chain: PYDVPDYALQASGGGGSGGGGSGGGGSASQVKLEQSGAEVVKPGASVKLSCKASGFNIKDSYMHWLRQGPGQRLEWIGWIDPENGDTEYAPKFQGKATFTTDTSANTAYLGLSSLRPEDTAVYYCNEGTPTGPYYFDYWGQGTLVTVSSGGGGSGGGGSGGGGSENVLTQSPSSMSASVGDRVTIACSASSSVPYMHWLQQKPGKSPKLLIYSTSNLASGVPSRFSGSGSGTDYSLTISSVQPEDAATYYCQQRSSYPLTFGGGTKLEIKAAAGSEQKLISEEDL

- koff [7]: 8.3e-06 s⁻¹
- koff [4]: 8.2e-06 s⁻¹
B5: sm10B (scFv)
chain: PYDVPDYALQASGGGGSGGGGSGGGGSASQVKLEQSGAEVVKPGASVKLSCKASGFNIKDSYMHWLRQGPGQRLEWIGWIDPENGDTEYAPKFQGKATFTTDTSANTAYLGLSSLRPEDTAVYYCNEGTPTGPYYFDYWGQGTLVTVSSGGGGSGGGGSGGGGSENVLTQSPSSMSASVGDRVTIACSASSSVPYMHWFQQKPGKSPKLLIYLTSNLASGVPSRFSGSGSGTDYSLTISSVQPEDAATYYCQQRSSYPLTFGGGTKLEIKAAAGSEQKLISEEDL

- koff [3]: 6e-06 s⁻¹
- fold improvement in the affinity over hMFE [8]: 100 fold
- fold improvement in the off-rate over hMFE [5]: 200 fold
- Kd [9]: 0.08 nM
B8: m10B (scFv)
chain: PYDVPDYALQASGGGGSGGGGSGGGGSASQVKLEQSGAEVVKPGASVKLSCKASGFNIKDSYMHWLRQGPGQRLEWIGWIDPENGDTEYAPKFQGKATFTTDTSANTAYLGLSSLRPEDTAVYYCNEGTPTGPYYFDYWGQGTLVTVSSGGGGSGGGGSGGGGSENVLTQSPSSMSASVGDRVNIACSASSSVSYMHWFQQKPGKSPKLWIYLTSNLASGVPSRFSGSGSGTDYSLTISSMQPEDAATYYCQQRSSYPLTFGGGTKLEIKAAAGSEQKLISEEDL

- koff [4]: 6.8e-06 s⁻¹
B10: sm10B+T98A (scFv)
chain: PYDVPDYALQASGGGGSGGGGSGGGGSASQVKLEQSGAEVVKPGASVKLSCKASGFNIKDSYMHWLRQGPGQRLEWIGWIDPENGDTEYAPKFQGKATFTTDTSANTAYLGLSSLRPEDTAVYYCNEGTPAGPYYFDYWGQGTLVTVSSGGGGSGGGGSGGGGSENVLTQSPSSMSASVGDRVTIACSASSSVPYMHWFQQKPGKSPKLLIYLTSNLASGVPSRFSGSGSGTDYSLTISSVQPEDAATYYCQQRSSYPLTFGGGTKLEIKAAAGSEQKLISEEDL

Continued, molecule first:

B1: humanized MFE-23 (hMFE) scFv (scFv)
scFv: PYDVPDYALQASGGGGSGGGGSGGGGSASQVKLEQSGAEVVKPGASVKLSCKASGFNIKDSYMHWLRQGPGQRLEWIGWIDPENGDTEYAPKFQGKATFTTDTSANTAYLGLSSLRPEDTAVYYCNEGTPTGPYYFDYWGQGTLVTVSSGGGGSGGGGSGGGGSENVLTQSPSSMSASVGDRVNIACSASSSVSYMHWFQQKPGKSPKLWIYSTSNLASGVPSRFSGSGSGTDYSLTISSMQPEDAATYYCQQRSSYPLTFGGGTKLEIKAAAGSEQKLISEEDL
notes: also called hMFE-23; resurfaced scFv
- Kd [2]: 8.3 nM and 8.5 nM
- koff [3]: 0.0012 s⁻¹
- koff [4]: 0.0009 s⁻¹
- half-life for binding to CEA [5]: 0.167 h

B2: m3E (scFv)
chain: PYDVPDYALQASGGGGSGGGGSGGGGSASQVKLEQSGAEVVKPGASVKLSCKASGFNIKDSYMHWLRQGPGQRLEWIGWIDPENGDTEYAPKFQGKATFTTDTSANTAYLGLSSLRPEDTAVYYCNEGTPTGPYYFDYWGQGTLVTVSSGGGGSGGGGSGGGGSENVLTQSPSSMSASVGDRVNIACSASSSVSYMHWLQQKPGKSPKLWIYLTSNLASGVPSRFSGSGSGTDYSLTISSMQPEDAATYYCQQRSSYPLTFGGGTKLEIKAAAGSEQKLISEEDL
- koff [6]: 1.2e-06 s⁻¹
- half-life for binding to CEA [5]: ~168 h

B4: m9B (scFv)
chain: PYDVPDYALQASGGGGSGGGGSGGGGSASQVKLEQSGAEVVKPGASVKLSCKASGFNIKDSYMHWLRQGPGQRLEWIGWIDPENGDTEYAPKFQGKATFTTDTSANTAYLGLSSLRPEDTAVYYCNEGTPTGPYYFDYWGQGTLVTVSSGGGGSGGGGSGGGGSENVLTQSPSSMSASVGDRVNIACSASSSVSYMHWLQQKPGKSPKLWIYSTSNLASGVPSRFSGSGSGTDYSLTISSMQPEDAATYYCQQRSSYPLTFGGGTKLEIKAAAGSEQKLISEEDL
- koff [3]: 7.5e-05 s⁻¹
- fold improvement in the dissociation constant over hMFE [8]: 10 fold
- fold improvement in the off-rate over hMFE [5]: 16 fold
- Kd [9]: 0.8 nM

B6: hMFE+T98A (scFv)
chain: PYDVPDYALQASGGGGSGGGGSGGGGSASQVKLEQSGAEVVKPGASVKLSCKASGFNIKDSYMHWLRQGPGQRLEWIGWIDPENGDTEYAPKFQGKATFTTDTSANTAYLGLSSLRPEDTAVYYCNEGTPAGPYYFDYWGQGTLVTVSSGGGGSGGGGSGGGGSENVLTQSPSSMSASVGDRVNIACSASSSVSYMHWFQQKPGKSPKLWIYSTSNLASGVPSRFSGSGSGTDYSLTISSMQPEDAATYYCQQRSSYPLTFGGGTKLEIKAAAGSEQKLISEEDL
- fold improvement in off-rate over hMFE [4]: 1.5 fold
- koff [4]: 0.0006 s⁻¹

B7: m8E (scFv)
chain: PYDVPDYALQASGGGGSGGGGSGGGGSASQVKLEQSGAEVVKPGASVKLSCKASGFNIKDSYMHWLRQGPGQRLEWIGWIDPQNGDTEYAPKFQGKATFTTDTSANTAYLGLSSLRPEDTAVYYCNEGTPAGPYYFDYWGQGTLVTVSSGGGGSGGGGSGGGGSENVLTQSPSSMSASVGDRVNIACSASSSVSYMHWFQQKPGKSPKLWIYLTSNLAPGVPSRFSGSGSGTDYSLTISSMQPEDAATYYCQQRSSYPLTFGGGTKLEIKAAAGSEQKLISEEDL
- koff [6]: 2.6e-06 s⁻¹

B9: m7E (scFv)
chain: PYDVPDYALQASGGGGSGGGGSGGGGSASQVKLEQSGAEVVKPGASVKLSCKASGFNIKDSYMHWLRQGPGQRLEWIGWIDPENGDTEYAPKFQGKATFTTDTSANTAYLGLSSLRPEDTAVYYCNEGTPTGPYYFDYWGQGTLVTVSSGGGGSGGGGSGGGGSENVLTQSPSSMSASVGDRVNIACNASSSVSYMHWLQQKPGKSPKLWIYLTSNLAPGVPSRFSGSGSGTDYSLTISSMQPEDAATYYCQQRSSYPLTFGGGTKLEIKAAAGSEQKLISEEDL
- koff [6]: 1.8e-06 s⁻¹

B11: MFE-23 scFv (scFv)
scFv: QVKLQQSGAELVRSGTSVKLSCTASGFNIKDSYMHWLRQGPEQGLEWIGWIDPENGDTEYAPKFQGKATFTTDTSSNTAYLQLSSLTSEDTAVYYCNEGTPTGPYYFDYWGQGTTVTVSSGGGGSGGGGSGGGGSENVLTQSPAIMSASPGEKVTITCSASSSVSYMHWFQQKPGTSPKLWIYSTSNLASGVPARFSGSGSGTSYSLTISRMEAEDAATYYCQQRSSYPLTFGAGTKLELKRAA
notes: Tested on the yeast surface as an Aga2p fusion in pCTCON, with an HA tag N-terminal and a c-myc tag C-terminal of the scFv
- Kd [2]: 8.3 nM and 7.5 nM
